Results published in patent US12269859B2, “Synthetic immune receptors and methods of use thereof” (Angeles Therapeutics, Inc., priority 2016, dated 2025).

System: target antigen-expressing cell line
Test: Jurkat NFAT-GFP assay, coculture with target cell lines expressing the respective target antigen (summary Table 10A)
Format: cell-based, human
Set-up: key: The signs +/−, +, 2+ etc. after the name of the cell lines indicate the relative degree of positivity on the Jurkat-NFAT-GFP assay as measured by the % GFP positive cells; +: relative degree of positivity on the Jurkat-NFAT-GFP assay as measured by the % GFP positive cells; 2+: relative degree of positivity on the Jurkat-NFAT-GFP assay as measured by the % GFP positive cells
How it was run: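 Coculture of SIR-bearing Jurkat NFAT-GFP reporters with target cells, ~1:2 E:T, ~4–18 h. FACS quantified % GFP+ cells, ranked semi-quantitatively against parental Jurkat-NFAT-GFP.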

Molecule | NFAT-GFP ASSAY Positive Cell lines (coculture with Bv173 cells) | NFAT-GFP ASSAY Positive Cell lines (coculture with U266 cells) | NFAT-GFP ASSAY Positive Cell lines (coculture with NALM6 cells) | NFAT-GFP ASSAY Positive Cell lines (coculture with RAJI cells) | NFAT-GFP ASSAY Positive Cell lines (coculture with KG1 cells) | NFAT-GFP ASSAY Positive Cell lines (coculture with MOLM13 cells) | NFAT-GFP ASSAY Positive Cell lines (coculture with THP1 cells) | NFAT-GFP ASSAY Positive Cell lines (coculture with L363 cells)
111815-E04 (protein, Polynucleotide encoding a Synthetic Immune Receptor (SIR)) MALPVTALLLPLALLLHAARPDEFEVQLVESGGGLVQAGGSLRLSCVASGISSSKRNMGWYRQAPGKQRESVATISSGGNKDYTDAVKDRFTISRDTTKNTVYLQMNSLKPEDTAVYYCKIEAGTGWATRRGYTYWGQGTLVTVSSLEGKPIPNPLLGLDSTGSGEDLKNVFPPEVAVFEPSEAEISHTQKATLVCLATGFYPDHVELSWWVNGKEVHSGVCTDPQPLKEQPALNDSRYCLSSRLRVSATFWQNPRNHFRCQVQFYGLSENDEWTQDRAKPVTQIVSAEAWGRADCGFTSESYQQGVLSATILYEILLGKATLYAVLVSALVLMAMVKRKDSRGRAKRSGSGATNFSLLKQAGDVEENPGPTSMDWIWRILFLVGAATGAHSFEVQLVESGGGSVQAGGSLRLSCTTSGRALNMYVMGWFRQAPGNEREFVAATSSSGGSTSYPDSVKGRFTISRDNAKNTVYLQMNSLKPEDTAAYRCAASPYVSTPTMNILEEYRYWGLGTQVTVSSTREQKLISEEDGSGIQNPDPAVYQLRDSKSSDKSVCLFTDFDSQTNVSQSKDSDVYITDKCVLDMRSMDFKSNSAVAWSNKSDFACANAFNNSIIPEDTFFPSPESSCDVKLVEKSFETDTNLNFQNLSVIGFRILLLKVAGFNLLMTLRLWSSRAKRSGSGVKQTLNFDLLKLAGDVESNPGPSRGHMTEYKPTVRLATRDDVPRAVRTLAAAFADYPATRHTVDPDRHIERVTELQELFLTRVGLDIGKVWVADDGAAVAVWTTPESVEAGAVFAEIGPRMAELSGSRLAAQQQMEGLLAPHRPKEPAWFLATVGVSPDHQGKGLGSAVVLPGVEAAERAGVPAFLETSAPRNLPFYERLGFTVTADVEVPEGPRTWCMTRKPGA | (2+) | U266 (2+), Bv173 | – | – | – | – | – | –
010417-Z03 (protein) MALPVTALLLPLALLLHAARPLEGKPIPNPLLGLDSTGSGEDLKNVFPPEVAVFEPSKAEIAHTQKATLVCLATGFYPDHVELSWWVNGKEVHSGVCTDPQPLKEQPALNDSRYCLSSRLRVSATFWQNPRNHFRCQVQFYGLSENDEWTQDRAKPVTQIVSAEAWGRADCGITSASYHQGVLSATILYEILLGKATLYAVLVSALVLMAMVKRKDSRGRAKRSGSGATNFSLLKQAGDVEENPGPTSTMALPVTALLLPLALLLHAARPDIQMTQSPSSLSASVGDRVTITCKASQDVGIAVAWYQQKPGKVPKLLIYWASTRHTGVPDRFSGSGSGTDFTLTISSLQPEDVATYYCQQYSSYPYTFGQGTKVEIKGGGGSGGGGSGGGGSEVQLVESGGGLVQPGGSLRLSCAASGFDFSRYWMSWVRQAPGKGLEWIGEINPDSSTINYAPSLKDKFIISRDNAKNSLYLQMNSLRAEDTAVYYCARPDGNYWYFDVWGQGTLVTVSSTREAAAKEIVMTQSPATLSLSPGERATLSCRASQDISKYLNWYQQKPGQAPRLLIYHTSRLHSGIPARFSGSGSGTDYTLTISSLQPEDFAVYFCQQGNTLPYTFGQGTKLEIKGGGGSGGGGSGGGGSQVQLQESGPGLVKPSETLSLTCTVSGVSLPDYGVSWIRQPPGKGLEWIGVIWGSETTYYNSSLKSRVTISKDNSKNQVSLKLSSVTAADTAVYYCAKHYYYGGSYAMDYWGQGTLVTVSSTREQKLISEEDGSGIQNPDPAVYQLRDSKSSDKSVCLFTDFDSQTNVSQSKDSDVYITDKCVLDMRSMDFKSNSAVAWSNKSDFACANAFNNSIIPEDTFFPSSDVPCDVKLVEKSFETDTNLNFQNLSVIGFRILLLKVAGFNLLMTLRLWSSRAKRSGSGVKQTLNFDLLKLAGDVESNPGPSRGHMTEYKPTVRLATRDDVPRAVRTLAAAFADYPATRHTVDPDRHIERVTELQELFLTRVGLDIGKVWVADDGAAVAVWTTPESVEAGAVFAEIGPRMAELSGSRLAAQQQMEGLLAPHRPKEPAWFLATVGVSPDHQGKGLGSAVVLPGVEAAERAGVPAFLETSAPRNLPFYERLGFTVTADVEVPEGPRTWCMTRKPGA | – | – | NALM6 | RAJI | – | – | – | –
111915-U05 (protein, Polynucleotide encoding a Synthetic Immune Receptor (SIR)) MALPVTALLLPLALLLHAARPDEFEVQLVESGGGLVQAGGSLRLSCVASGISSSKRNMGWYRQAPGKQRESVATISSGGNKDYTDAVKDRFTISRDTTKNTVYLQMNSLKPEDTAVYYCKIEAGTGWATRRGYTYWGQGTLVTVSSLEGKPIPNPLLGLDSTGSGEDLKNVFPPEVAVFEPSEAEISHTQKATLVCLATGFYPDHVELSWWVNGKEVHSGVCTDPQPLKEQPALNDSRYCLSSRLRVSATFWQNPRNHFRCQVQFYGLSENDEWTQDRAKPVTQIVSAEAWGRADCGFTSESYQQGVLSATILYEILLGKATLYAVLVSALVLMAMVKRKDSRGRAKRSGSGATNFSLLKQAGDVEENPGPTSMDWIWRILFLVGAATGAHSFEVQLVESGGGSVQPGGSLTLSCGTSGRTFNVMGWFRQAPGKEREFVAAVRWSSTGIYYTQYADSVKSRFTISRDNAKNTVYLEMNSLKPEDTAVYYCAADTYNSNPARWDGYDFRGQGTQVTVSSTREQKLISEEDGSGIQNPDPAVYQLRDSKSSDKSVCLFTDFDSQTNVSQSKDSDVYITDKCVLDMRSMDFKSNSAVAWSNKSDFACANAFNNSIIPEDTFFPSPESSCDVKLVEKSFETDTNLNFQNLSVIGFRILLLKVAGFNLLMTLRLWSSRAKRSGSGVKQTLNFDLLKLAGDVESNPGPSRGHMTEYKPTVRLATRDDVPRAVRTLAAAFADYPATRHTVDPDRHIERVTELQELFLTRVGLDIGKVWVADDGAAVAVWTTPESVEAGAVFAEIGPRMAELSGSRLAAQQQMEGLLAPHRPKEPAWFLATVGVSPDHQGKGLGSAVVLPGVEAAERAGVPAFLETSAPRNLPFYERLGFTVTADVEVPEGPRTWCMTRKPGA | (+/−), THP1 (+/−), | – | – | – | KG1 (2+) | MOLM13 (+/−), Bv173 | (+/−), THP1 (+/−), | –
010417-V07 (protein) MALPVTALLLPLALLLHAARPLEGKPIPNPLLGLDSTGSGEDLKNVFPPEVAVFEPSKAEIAHTQKATLVCLATGFYPDHVELSWWVNGKEVHSGVCTDPQPLKEQPALNDSRYCLSSRLRVSATFWQNPRNHFRCQVQFYGLSENDEWTQDRAKPVTQIVSAEAWGRADCGITSASYHQGVLSATILYEILLGKATLYAVLVSALVLMAMVKRKDSRGRAKRSGSGATNFSLLKQAGDVEENPGPTSTMALPVTALLLPLALLLHAARPDIQMTQSPSSLSASVGDRVTITCKASQDVGIAVAWYQQKPGKVPKLLIYWASTRHTGVPDRFSGSGSGTDFTLTISSLQPEDVATYYCQQYSSYPYTFGQGTKVEIKGGGGSGGGGSGGGGSEVQLVESGGGLVQPGGSLRLSCAASGFDFSRYWMSWVRQAPGKGLEWIGEINPDSSTINYAPSLKDKFIISRDNAKNSLYLQMNSLRAEDTAVYYCARPDGNYWYFDVWGQGTLVTVSSTREAAAKEIVLTQSPATLSLSPGERATLSCSASSSVSYMHWYQQKPGQAPRLLIYDTSKLASGIPARFSGSGSGTDFTLTISSLEPEDVAVYYCFQGSVYPFTFGQGTKLEIKRGGGGSGGGGSGGGGSQVQLQESGPGLVKPSQTLSLTCTVSGGSISTSGMGVGWIRQHPGKGLEWIGHIWWDDDKRYNPALKSRVTISVDTSKNQFSLKLSSVTAADTAVYYCARMELWSYYFDYWGQGTLVTVSSTREQKLISEEDGSGIQNPDPAVYQLRDSKSSDKSVCLFTDFDSQTNVSQSKDSDVYITDKCVLDMRSMDFKSNSAVAWSNKSDFACANAFNNSIIPEDTFFPSSDVPCDVKLVEKSFETDTNLNFQNLSVIGFRILLLKVAGFNLLMTLRLWSSRAKRSGSGVKQTLNFDLLKLAGDVESNPGPSRGHMTEYKPTVRLATRDDVPRAVRTLAAAFADYPATRHTVDPDRHIERVTELQELFLTRVGLDIGKVWVADDGAAVAVWTTPESVEAGAVFAEIGPRMAELSGSRLAAQQQMEGLLAPHRPKEPAWFLATVGVSPDHQGKGLGSAVVLPGVEAAERAGVPAFLETSAPRNLPFYERLGFTVTADVEVPEGPRTWCMTRKPGA | – | (+) | (+), L363 (+), U266 | RAJI (+), NALM6 | – | – | – | (+), L363 (+), U266
